Assay results: patent US20030130184, “Methods of inducing cell death” (The University of Bristol, published 2003)

Molecular target: T1, HPV16 E2Ct (E2 DNA binding domain) (Human papillomavirus type 16, UniProt P0DKA0 SEQ:1-87)
T1 chain: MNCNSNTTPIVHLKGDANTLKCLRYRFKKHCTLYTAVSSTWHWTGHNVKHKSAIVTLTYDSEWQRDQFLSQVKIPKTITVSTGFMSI
Test: EMSA; 10, 50, 250 nM protein; binds tightly; 20 mM HEPES pH 7.9, 25 mM KCl, poly[d(I-C)], 20 C; refolded E2Ct also binds (FIG. 7a)
Details: chain copies: 2 (stated, dimer); label: 32P 5' end

B1: HPV16 E2 site 1, E2(1) (dsDNA)
DNA 1: TTGAACCGAAACCGGTTAGT
DNA 2: ACTAACCGGTTTCGGTTCAA
  binding result: binds
